{
  "source": "paper PMC3325211",
  "about": "“Mutations in MITF and PAX3 Cause “Splashed White” and Other White Spotting Phenotypes in Horses”",
  "binders": {"B1": {"name": "M-box oligonucleotide (dsDNA)", "DNA 1": "GGAAAGTTAGTCATGTGCTTTTCAGAAGA", "DNA 2": "TCTTCTGAAAAGCACATGACTAACTTTCC"}},
  "biological_target": "MITF N310S (DNA-binding fragment) (UniProt Q95MD1 112-207, N149S)",
  "sequence (Q95MD1 entry or part of it N149S | N310S N310S)": "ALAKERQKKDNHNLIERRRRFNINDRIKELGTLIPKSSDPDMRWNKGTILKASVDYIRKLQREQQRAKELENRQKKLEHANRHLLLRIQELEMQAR",
  "experiment": "EMSA; 5 mM MgCl2; 2.0 uM protein end point; reduced by about 80%; 20 mM Tris, 50 mM NaCl, 5 mM MgCl2, 1 mM DTT, 33 ug/ml BSA, pH 7.4, on ice 30 min; 6% native PAGE in 0.5x TBE",
  "details": "protein: recombinant; (Ni-NTA purified); chain copies: 2; label: radioactive label",
  "data": [
    {"binder": "B1", "values": [
      {"measurement": "binding signal", "result": "~20 % of wild-type binding"}
    ]}
  ]
}
